Assays:
HsaC = molecular target: T1, HsaC (Mycobacterium tuberculosis, UniProt P9WNW7); format: biochemical; details: 20 mM HEPES, 80 mM NaCl, pH 7.0, 5% O2, 25°C; slow substrate, mechanism-based oxidative inactivation
T1 construct: full-length, recombinant in E. coli, purified anaerobically, no tag mentioned; Fe(II) enzyme; gene 903 bp; octamer

Oc1cccc(-c2ccccc2)c1O = test: purified protein; details: pH 7.0; 25.0 °C
[1] = system: Cc1ccc(O)c(O)c1CC[C@@H]1C(=O)CC[C@]2(C)C(=O)CC[C@@H]12; test: purified protein; details: pH 7.0; 25.0 °C
[2] = system: Cc1ccc(O)c(O)c1CCc1ccccc1Cl; test: purified protein; details: pH 7.0; 25.0 °C
[3] = system: Cc1cc(Cl)c(O)c(O)c1CCc1ccccc1Cl; test: purified protein; details: pH 7.0; 25.0 °C

T1 sequence (P9WNW7 whole entry): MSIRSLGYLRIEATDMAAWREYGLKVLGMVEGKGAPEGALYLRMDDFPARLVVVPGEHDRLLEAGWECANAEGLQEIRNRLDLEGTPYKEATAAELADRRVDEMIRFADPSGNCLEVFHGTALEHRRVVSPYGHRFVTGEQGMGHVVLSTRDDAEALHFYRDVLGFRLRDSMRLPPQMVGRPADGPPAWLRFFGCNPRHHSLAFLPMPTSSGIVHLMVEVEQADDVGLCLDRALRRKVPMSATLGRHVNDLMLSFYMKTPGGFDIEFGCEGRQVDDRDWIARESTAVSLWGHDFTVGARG

Molecule	Km (HsaC)	Km (Oc1cccc(-c2ccccc2)c1O)	kcat/Km (Oc1cccc(-c2ccccc2)c1O)	Km [1]	kcat/Km [1]	Km [2]	kcat/Km [2]	Km [3]	kcat/Km [3]
Oc1cccc(-c2c(Cl)cccc2Cl)c1O [2′,6′-diCl DHB]	6.7 µM	–	–	–	–	–	–	–	–
HsaC (Mycobacterium tuberculosis H37Rv)	–	10 (2) µM	160000 M⁻¹ s⁻¹	1.1 (0.2) µM	1.5e+07 M⁻¹ s⁻¹	4.8 (0.6) µM	1.4e+06 M⁻¹ s⁻¹	3.2 (0.3) µM	85000 M⁻¹ s⁻¹

Source: article PMC2652662, “Studies of a Ring-Cleaving Dioxygenase Illuminate the Role of Cholesterol Metabolism in the Pathogenesis of Mycobacterium tuberculosis” (PLoS Pathogens, 2009)
